This is an account of results in patent publication US20180215801A1.

The target of this experiment is Activin B (UniProt P09529). The experiment is described as follows: SPR (Biacore 2000), Fc fusion captured on anti-human Fc chip, ligand injected, 1:1 Langmuir fit. In general terms: SPR reads the build-up and loss of mass on a sensor chip optically.

What is called Kd is the equilibrium constant for the complex coming apart. A high value points to weaker binding. For orientation: koff means a measure of how fast the partners let go of each other. Read a high koff as fast dissociation. In general, kon refers to the rate constant with which the complex forms. A low value points to slower complex formation.

Chain of Activin B (P09529 293-407 limits assumed): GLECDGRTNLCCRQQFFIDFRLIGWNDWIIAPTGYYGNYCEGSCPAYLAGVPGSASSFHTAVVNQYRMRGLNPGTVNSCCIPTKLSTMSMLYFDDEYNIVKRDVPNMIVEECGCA

“BMPRII-Fc (BMPRII (1-120) fused to hIgG1-Fc) (from UniProt Q13873 27-120) (Fc fusion)” came in with a dissociation constant (Kd) of 800 pM, a koff of 0.00042 s⁻¹ and a kon of 510000 M⁻¹ s⁻¹.
